Data on 1 molecule can be found in patent US7459156 (University of California, dated 2008).

In assay [1] the target is T1, low affinity nerve growth factor receptor (LNGFR) on PC12 cells (rat, UniProt P07174 30-425).
T1 construct: whole, on cells
T1 sequence (looked up): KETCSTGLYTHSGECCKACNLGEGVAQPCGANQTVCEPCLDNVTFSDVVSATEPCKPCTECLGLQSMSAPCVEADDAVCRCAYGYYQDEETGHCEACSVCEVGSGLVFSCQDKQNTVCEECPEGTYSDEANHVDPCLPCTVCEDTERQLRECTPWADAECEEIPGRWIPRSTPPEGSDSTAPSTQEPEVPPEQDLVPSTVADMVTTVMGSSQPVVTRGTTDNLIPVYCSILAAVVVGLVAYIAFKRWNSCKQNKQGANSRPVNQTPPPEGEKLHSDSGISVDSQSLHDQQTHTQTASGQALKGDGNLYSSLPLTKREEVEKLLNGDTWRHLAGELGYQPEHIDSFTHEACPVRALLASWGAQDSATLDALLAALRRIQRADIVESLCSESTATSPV
Nature of the assay: equilibrium ^125I-NGF binding to PC12 cells, Scatchard/LIGAND; control IgG present; low affinity site. As for the experimental part:
(§1) Binding Assays. […] Nonspecific binding was determined by addition of […] unlabeled NGF, and ranged from 2-25% of specific binding. Determinations were made in triplicate. The equilibrium binding data from two experiments were combined for the Scatchard analysis (Scatchard, G., *Analys of NY Acad. Sciences* 5:660-672 (1949)), which was performed with the program LIGAND (Munson, P. J. and Rodbard, D., *Anal. Biochem.*, 107, 220-239 (1980)). The Scatchard data are plotted as fmoles bound per 10^5 cells (equivalent to a volume of 2×10^-4 liters).
(§2) To analyze the characteristics of the NGF binding sites remaining in the presence of the anti-LNGFR or -trkA antibodies, equilibrium binding assays were performed from 3.5 to 4000 pM NGF. The results are plotted by the Scatchard method in FIG. 2. As is now well known, PC12 cells have NGF binding sites with differing kinetic characteristics, leading to low and high affinity binding sites (Schechter and Bothwell, 1981). This is observed in the biphasic graph of NGF binding determined in the presence of control IgG (FIG. 2, open squares; the binding parameters are presented in Table 1).
(§3) FIG. 2 is an analysis of anti-LNGFR- and RtrkA.EX-resistant NGF binding sites. […] Nonspecific binding was determined as in FIG. 1A; values were determined in triplicate.

Assay [2] concerns the target T2, rat trkA receptor (full length, 140 kD) (rat, UniProt P35739 33-799).
T2 construct: whole, on cells; also called p140trk; native trkA receptor protein
Nature of the assay: equilibrium ^125I-NGF binding to PC12 cells, Scatchard/LIGAND; control IgG present; high affinity site. As for the experimental part: as §1, §2, §3

The target in assay [3] is T1, low affinity nerve growth factor …. The assay is described as follows: equilibrium ^125I-NGF binding to PC12 cells, Scatchard/LIGAND; 500 ug/ml RtrkA.EX IgG present; remaining low affinity site. As for the experimental part:
as §1, §2, §3

Assay [4] concerns the target T2, rat trkA receptor (full length, 140 kD). Nature of the assay: equilibrium ^125I-NGF binding to PC12 cells, Scatchard/LIGAND; 500 ug/ml anti-LNGFR IgG present; remaining high affinity site. As for the experimental part:
as §1, §2, §3

T2 sequence (P35739 33-799): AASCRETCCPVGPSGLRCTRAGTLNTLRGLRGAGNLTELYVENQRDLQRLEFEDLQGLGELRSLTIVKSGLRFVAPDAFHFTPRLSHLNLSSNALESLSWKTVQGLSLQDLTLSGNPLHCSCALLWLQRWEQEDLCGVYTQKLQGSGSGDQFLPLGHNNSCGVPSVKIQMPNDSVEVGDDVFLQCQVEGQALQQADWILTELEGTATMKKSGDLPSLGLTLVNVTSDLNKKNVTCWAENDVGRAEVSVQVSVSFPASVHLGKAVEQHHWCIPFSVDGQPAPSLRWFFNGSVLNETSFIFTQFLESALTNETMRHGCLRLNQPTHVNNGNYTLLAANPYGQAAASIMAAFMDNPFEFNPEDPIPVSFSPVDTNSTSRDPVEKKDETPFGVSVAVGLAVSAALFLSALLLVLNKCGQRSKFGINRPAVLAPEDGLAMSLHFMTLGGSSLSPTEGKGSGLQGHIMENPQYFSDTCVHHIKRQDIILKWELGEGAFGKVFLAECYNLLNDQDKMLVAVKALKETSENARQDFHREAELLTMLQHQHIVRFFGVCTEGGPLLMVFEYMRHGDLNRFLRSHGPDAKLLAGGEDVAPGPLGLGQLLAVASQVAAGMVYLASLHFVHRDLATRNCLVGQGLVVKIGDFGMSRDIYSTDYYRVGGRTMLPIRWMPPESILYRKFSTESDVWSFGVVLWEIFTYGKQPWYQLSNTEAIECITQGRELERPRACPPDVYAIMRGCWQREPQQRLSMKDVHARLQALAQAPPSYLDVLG

B1: nerve growth factor (NGF) (ligand, mouse, UniProt P01139 122-241, looked up)
chain: SSTHPVFHMGEFSVCDSVSVWVGDKTTATDIKGKEVTVLAEVNINNSVFRQYFFETKCRASNPVESGCRGIDSKHWNSYCTTTHTFVKALTTDEKQAAWRFIRIDTACVCVLSRKATRRG
modifications: 125I label on the NGF used in the binding assays
notes: mature; The species is stated only for the unlabelled NGF; the labelled NGF was bought
On to B1, for which the dissociation constant Kd – broadly, the equilibrium constant for the complex coming apart – came out at 1.8 nM in assay [1], 0.038 nM in assay [2], 1.1 nM in assay [3] and 0.092 nM in assay [4].
